# Source: paper PMC10786891, “Massively parallel profiling of RNA-targeting CRISPR-Cas13d”
# T1: EsCas13d, nuclease-dead (Eubacterium siraeum, UniProt B0MS50, R295A;H300A;R849A;H854A)
# T1 sequence: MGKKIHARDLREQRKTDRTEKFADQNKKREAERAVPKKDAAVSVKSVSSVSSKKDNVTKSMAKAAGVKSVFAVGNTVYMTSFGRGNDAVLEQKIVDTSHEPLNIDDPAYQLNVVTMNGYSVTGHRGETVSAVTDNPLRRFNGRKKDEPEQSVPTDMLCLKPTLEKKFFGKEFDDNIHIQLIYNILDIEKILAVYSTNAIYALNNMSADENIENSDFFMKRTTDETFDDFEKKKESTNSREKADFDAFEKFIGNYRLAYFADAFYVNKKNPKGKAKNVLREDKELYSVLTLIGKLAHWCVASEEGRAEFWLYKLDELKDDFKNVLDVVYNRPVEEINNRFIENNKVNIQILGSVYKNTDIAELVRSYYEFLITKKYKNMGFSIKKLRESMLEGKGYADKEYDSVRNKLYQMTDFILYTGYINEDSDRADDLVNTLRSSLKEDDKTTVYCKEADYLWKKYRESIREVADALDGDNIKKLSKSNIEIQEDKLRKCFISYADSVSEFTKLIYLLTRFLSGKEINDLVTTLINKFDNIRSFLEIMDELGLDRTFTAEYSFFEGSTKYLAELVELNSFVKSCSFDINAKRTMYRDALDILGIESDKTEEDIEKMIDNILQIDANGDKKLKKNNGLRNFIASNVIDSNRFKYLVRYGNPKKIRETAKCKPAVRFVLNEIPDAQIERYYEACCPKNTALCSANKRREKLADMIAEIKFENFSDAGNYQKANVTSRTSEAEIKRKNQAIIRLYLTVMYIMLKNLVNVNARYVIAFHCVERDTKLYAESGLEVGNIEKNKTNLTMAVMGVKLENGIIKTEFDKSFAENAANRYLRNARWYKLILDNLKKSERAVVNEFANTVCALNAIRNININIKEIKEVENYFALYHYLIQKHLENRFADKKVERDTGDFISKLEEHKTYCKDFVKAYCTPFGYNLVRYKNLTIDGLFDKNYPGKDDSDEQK
# Target: T1, EsCas13d, nuclease-dead
# Test: crRNA (strand 1, pre-loaded); Mg2+; 40 mM Tris-HCl pH 7.5, 150 mM NaCl, 6 mM MgCl2, 1 mM DTT, 0.1% Tween-20, 0.2 mg/ml BSA; 25 C; 10 min per concentration, then washed
# Conditions: tags: His6-TwinStrep-SUMO cleaved; N-terminal SNAP kept (SNAP-Surface 488); label: 3' end held by stalled T7 RNA polymerase
row,Binder,Kd [nM]
1,target 2 MT 5'PFS GAU 3'PFS UGU (mixed) RNA 1: CACCCGUGCAAAAUUGCAGGGGUCUAAAACCUUCUCCAAAUUGUUUCAUCCU RNA 2: GGGAAUGGAUCCACAUCUACGAAUUCGAUAGGAUGAAACAAUUUGGAGAAGUGUAGAUCGGAAGAGCACACGU,21.2 ± 2.2
2,target 2 MT 5'PFS GGA 3'PFS AUU (mixed) RNA 1: CACCCGUGCAAAAUUGCAGGGGUCUAAAACCUUCUCCAAAUUGUUUCAUCCU RNA 2: GGGAAUGGAUCCACAUCUACGAAUUCGGAAGGAUGAAACAAUUUGGAGAAGAUUAGAUCGGAAGAGCACACGU,9 ± 1
3,target 2 MT 5'PFS GAC 3'PFS UCU (mixed) RNA 1: CACCCGUGCAAAAUUGCAGGGGUCUAAAACCUUCUCCAAAUUGUUUCAUCCU RNA 2: GGGAAUGGAUCCACAUCUACGAAUUCGACAGGAUGAAACAAUUUGGAGAAGUCUAGAUCGGAAGAGCACACGU,27 ± 6
4,target 2 MT 5'PFS GGA 3'PFS AUA (mixed) RNA 1: CACCCGUGCAAAAUUGCAGGGGUCUAAAACCUUCUCCAAAUUGUUUCAUCCU RNA 2: GGGAAUGGAUCCACAUCUACGAAUUCGGAAGGAUGAAACAAUUUGGAGAAGAUAAGAUCGGAAGAGCACACGU,10.2 ± 1.5
5,target 2 MT 5'PFS GCA 3'PFS UCC (mixed) RNA 1: CACCCGUGCAAAAUUGCAGGGGUCUAAAACCUUCUCCAAAUUGUUUCAUCCU RNA 2: GGGAAUGGAUCCACAUCUACGAAUUCGCAAGGAUGAAACAAUUUGGAGAAGUCCAGAUCGGAAGAGCACACGU,32 ± 4
6,target 2 MT 5'PFS GGA 3'PFS AUG (mixed) RNA 1: CACCCGUGCAAAAUUGCAGGGGUCUAAAACCUUCUCCAAAUUGUUUCAUCCU RNA 2: GGGAAUGGAUCCACAUCUACGAAUUCGGAAGGAUGAAACAAUUUGGAGAAGAUGAGAUCGGAAGAGCACACGU,9.8 ± 0.9
7,target 2 MT 5'PFS GUU 3'PFS CUU (mixed) RNA 1: CACCCGUGCAAAAUUGCAGGGGUCUAAAACCUUCUCCAAAUUGUUUCAUCCU RNA 2: GGGAAUGGAUCCACAUCUACGAAUUCGUUAGGAUGAAACAAUUUGGAGAAGCUUAGAUCGGAAGAGCACACGU,16.6 ± 1.6
8,target 2 MT 5'PFS GAC 3'PFS UCA (mixed) RNA 1: CACCCGUGCAAAAUUGCAGGGGUCUAAAACCUUCUCCAAAUUGUUUCAUCCU RNA 2: GGGAAUGGAUCCACAUCUACGAAUUCGACAGGAUGAAACAAUUUGGAGAAGUCAAGAUCGGAAGAGCACACGU,13.8 ± 3.4
9,target 2 MT 5'PFS GCU 3'PFS CAG (mixed) RNA 1: CACCCGUGCAAAAUUGCAGGGGUCUAAAACCUUCUCCAAAUUGUUUCAUCCU RNA 2: GGGAAUGGAUCCACAUCUACGAAUUCGCUAGGAUGAAACAAUUUGGAGAAGCAGAGAUCGGAAGAGCACACGU,17 ± 4
10,target 2 MT 5'PFS UAU 3'PFS CCG (mixed) RNA 1: CACCCGUGCAAAAUUGCAGGGGUCUAAAACCUUCUCCAAAUUGUUUCAUCCU RNA 2: GGGAAUGGAUCCACAUCUACGAAUUCUAUAGGAUGAAACAAUUUGGAGAAGCCGAGAUCGGAAGAGCACACGU,55 ± 8
11,target 2 MT 5'PFS CAC 3'PFS CGA (mixed) RNA 1: CACCCGUGCAAAAUUGCAGGGGUCUAAAACCUUCUCCAAAUUGUUUCAUCCU RNA 2: GGGAAUGGAUCCACAUCUACGAAUUCCACAGGAUGAAACAAUUUGGAGAAGCGAAGAUCGGAAGAGCACACGU,3.01 ± 0.34
12,target 2 MT 5'PFS CAC 3'PFS CGC (mixed) RNA 1: CACCCGUGCAAAAUUGCAGGGGUCUAAAACCUUCUCCAAAUUGUUUCAUCCU RNA 2: GGGAAUGGAUCCACAUCUACGAAUUCCACAGGAUGAAACAAUUUGGAGAAGCGCAGAUCGGAAGAGCACACGU,1.69 ± 0.2
13,target 2 MT 5'PFS GAU 3'PFS UGC (mixed) RNA 1: CACCCGUGCAAAAUUGCAGGGGUCUAAAACCUUCUCCAAAUUGUUUCAUCCU RNA 2: GGGAAUGGAUCCACAUCUACGAAUUCGAUAGGAUGAAACAAUUUGGAGAAGUGCAGAUCGGAAGAGCACACGU,14.9 ± 1.9
14,target 2 MT 5'PFS GUU 3'PFS CUG (mixed) RNA 1: CACCCGUGCAAAAUUGCAGGGGUCUAAAACCUUCUCCAAAUUGUUUCAUCCU RNA 2: GGGAAUGGAUCCACAUCUACGAAUUCGUUAGGAUGAAACAAUUUGGAGAAGCUGAGAUCGGAAGAGCACACGU,21.3 ± 2.8
15,target 2 MT 5'PFS GGA 3'PFS AUC (mixed) RNA 1: CACCCGUGCAAAAUUGCAGGGGUCUAAAACCUUCUCCAAAUUGUUUCAUCCU RNA 2: GGGAAUGGAUCCACAUCUACGAAUUCGGAAGGAUGAAACAAUUUGGAGAAGAUCAGAUCGGAAGAGCACACGU,12.4 ± 1.9
16,target 2 MT 5'PFS GAU 3'PFS UGA (mixed) RNA 1: CACCCGUGCAAAAUUGCAGGGGUCUAAAACCUUCUCCAAAUUGUUUCAUCCU RNA 2: GGGAAUGGAUCCACAUCUACGAAUUCGAUAGGAUGAAACAAUUUGGAGAAGUGAAGAUCGGAAGAGCACACGU,19 ± 5
17,target 2 MT 5'PFS UUA 3'PFS UCU (mixed) RNA 1: CACCCGUGCAAAAUUGCAGGGGUCUAAAACCUUCUCCAAAUUGUUUCAUCCU RNA 2: GGGAAUGGAUCCACAUCUACGAAUUCUUAAGGAUGAAACAAUUUGGAGAAGUCUAGAUCGGAAGAGCACACGU,28 ± 4
18,target 2 MT 5'PFS GCA 3'PFS UCU (mixed) RNA 1: CACCCGUGCAAAAUUGCAGGGGUCUAAAACCUUCUCCAAAUUGUUUCAUCCU RNA 2: GGGAAUGGAUCCACAUCUACGAAUUCGCAAGGAUGAAACAAUUUGGAGAAGUCUAGAUCGGAAGAGCACACGU,27 ± 12
19,target 2 MT 5'PFS UAU 3'PFS CCA (mixed) RNA 1: CACCCGUGCAAAAUUGCAGGGGUCUAAAACCUUCUCCAAAUUGUUUCAUCCU RNA 2: GGGAAUGGAUCCACAUCUACGAAUUCUAUAGGAUGAAACAAUUUGGAGAAGCCAAGAUCGGAAGAGCACACGU,37 ± 15
20,target 2 MT 5'PFS GUU 3'PFS CUA (mixed) RNA 1: CACCCGUGCAAAAUUGCAGGGGUCUAAAACCUUCUCCAAAUUGUUUCAUCCU RNA 2: GGGAAUGGAUCCACAUCUACGAAUUCGUUAGGAUGAAACAAUUUGGAGAAGCUAAGAUCGGAAGAGCACACGU,14 ± 1.9
21,target 2 MT 5'PFS CAC 3'PFS AGC (mixed) RNA 1: CACCCGUGCAAAAUUGCAGGGGUCUAAAACCUUCUCCAAAUUGUUUCAUCCU RNA 2: GGGAAUGGAUCCACAUCUACGAAUUCCACAGGAUGAAACAAUUUGGAGAAGAGCAGAUCGGAAGAGCACACGU,1.87 ± 0.32
22,target 2 MT 5'PFS GAC 3'PFS UCG (mixed) RNA 1: CACCCGUGCAAAAUUGCAGGGGUCUAAAACCUUCUCCAAAUUGUUUCAUCCU RNA 2: GGGAAUGGAUCCACAUCUACGAAUUCGACAGGAUGAAACAAUUUGGAGAAGUCGAGAUCGGAAGAGCACACGU,15.2 ± 2.7
23,target 2 MT 5'PFS UAU 3'PFS AUC (mixed) RNA 1: CACCCGUGCAAAAUUGCAGGGGUCUAAAACCUUCUCCAAAUUGUUUCAUCCU RNA 2: GGGAAUGGAUCCACAUCUACGAAUUCUAUAGGAUGAAACAAUUUGGAGAAGAUCAGAUCGGAAGAGCACACGU,53 ± 9
24,target 2 MT 5'PFS UUA 3'PFS UCA (mixed) RNA 1: CACCCGUGCAAAAUUGCAGGGGUCUAAAACCUUCUCCAAAUUGUUUCAUCCU RNA 2: GGGAAUGGAUCCACAUCUACGAAUUCUUAAGGAUGAAACAAUUUGGAGAAGUCAAGAUCGGAAGAGCACACGU,20 ± 4
25,target 2 MT 5'PFS GUU 3'PFS CUC (mixed) RNA 1: CACCCGUGCAAAAUUGCAGGGGUCUAAAACCUUCUCCAAAUUGUUUCAUCCU RNA 2: GGGAAUGGAUCCACAUCUACGAAUUCGUUAGGAUGAAACAAUUUGGAGAAGCUCAGAUCGGAAGAGCACACGU,20.4 ± 2.3
26,target 2 MT 5'PFS UUA 3'PFS UCG (mixed) RNA 1: CACCCGUGCAAAAUUGCAGGGGUCUAAAACCUUCUCCAAAUUGUUUCAUCCU RNA 2: GGGAAUGGAUCCACAUCUACGAAUUCUUAAGGAUGAAACAAUUUGGAGAAGUCGAGAUCGGAAGAGCACACGU,25 ± 4
27,"target 1 G5A,C7U (mixed) RNA 1: CACCCGUGCAAAAAUGCAGGGGUCUAAAACUGAGCGGAUAACCUCUCUAUGG RNA 2: GGGAAUGGAUCCACAUCUACGAAUUCGUACCAUAGAGAGGUUAUUCACUCACCGAGAUCGGAAGAGCACACGU",7.7 ± 0.5
28,"target 1 G15U,A16G (mixed) RNA 1: CACCCGUGCAAAAAUGCAGGGGUCUAAAACUGAGCGGAUAACCUCUCUAUGG RNA 2: GGGAAUGGAUCCACAUCUACGAAUUCGUACCAUAGGUAGGUUAUCCGCUCACCGAGAUCGGAAGAGCACACGU",27.1 ± 2.2
